Changes are numbered by the printed parent chain.

Holding throughout (test): SPR
In one data set the target is T1, DnaC R220A (Escherichia coli, UniProt P0AEF0 1-245, R220A).
T1 sequence: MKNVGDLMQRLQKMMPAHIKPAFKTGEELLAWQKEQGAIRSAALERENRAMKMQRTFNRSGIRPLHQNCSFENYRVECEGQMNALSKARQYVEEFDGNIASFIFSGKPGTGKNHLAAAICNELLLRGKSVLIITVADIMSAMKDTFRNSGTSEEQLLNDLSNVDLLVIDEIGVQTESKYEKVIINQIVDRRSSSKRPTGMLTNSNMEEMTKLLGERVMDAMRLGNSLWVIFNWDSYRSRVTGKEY

The target in another data set is T2, DnaC (Escherichia coli, UniProt P0AEF0 1-245).
T2 sequence: T1 sequence with A220R

In the next data set the target is T3, DnaC R216A (Escherichia coli, UniProt P0AEF0 1-245, R216A).
T3 sequence: T1 sequence with R216A, A220R

B1: 5'-biotinylated oligonucleotide (ssDNA)
DNA: CATCCAATAAATCATACACAAGGC
As to B1, the binding signal with DnaC R220A is 1.7 fold stronger than without ATP; with DnaC it was ~2.4 fold stronger than without ATP. Also, the binding result with DnaC R216A is given as “binds”.
